Measurements from article PMC2233640, “Human NCU-G1 can function as a transcription factor and as a nuclear receptor co-activator”.

Target: T1, NCU-G1 (kidney predominant protein), GST fusion (Homo sapiens, UniProt Q8WWB7 1-406)
T1 sequence: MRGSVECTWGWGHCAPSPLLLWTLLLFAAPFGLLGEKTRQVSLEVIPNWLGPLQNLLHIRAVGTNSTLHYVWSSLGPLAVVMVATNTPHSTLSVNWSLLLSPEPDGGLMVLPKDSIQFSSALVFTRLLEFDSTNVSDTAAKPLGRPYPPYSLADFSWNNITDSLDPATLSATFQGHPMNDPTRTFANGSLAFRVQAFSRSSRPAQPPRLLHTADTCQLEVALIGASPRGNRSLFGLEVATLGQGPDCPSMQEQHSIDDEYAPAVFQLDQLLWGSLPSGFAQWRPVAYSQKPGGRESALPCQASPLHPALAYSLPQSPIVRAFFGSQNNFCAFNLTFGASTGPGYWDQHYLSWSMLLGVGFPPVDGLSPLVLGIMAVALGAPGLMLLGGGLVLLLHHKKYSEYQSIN
Assay: competition; 50-fold molar excess unlabeled vs 32P-FP1, EMSA; EMSA: 3 x 10^4 cpm 32P probe with 2 ug GST-NCU-G1; buffer, salt, pH and temperature not given (as described in ref 17)
Details: protein: recombinant; tags: N-terminal GST (pGEX-5X-3); double-stranded

B1: AP1 oligonucleotide (dsDNA)
DNA 1: CGCTTGATGACTCAGCCGGAA
DNA 2: TTCCGGCTGAGTCATCAAGCG
B1: no binding.
